# Laboratory results as given in US20170275666A1, “Methods for Preparing Rebaudioside I and Uses” (The Coca-Cola Company, priority 2014, published 2017).
# Numbering of substitutions follows the chain as printed.
# B1: UGT76G1var56: UGT76G1 variant, mutations L246F_A352G_S357N_Q432E (protein, UniProt Q6VAB4 1-458, looked up, variant L246F A352G S357N Q432E)
# UDP-glycosyltransferase 76G1: MENKTETTVRRRRRIILFPVPFQGHINPILQLANVLYSKGFSITIFHTNFNKPKTSNYPHFTFRFILDNDPQDERISNLPTHGPLAGMRIPIINEHGADELRRELELLMLASEEDEEVSCLITDALWYFAQSVADSLNLRRLVLMTSSLFNFHAHVSLPQFDELGYLDPDDKTRLEEQASGFPMLKVKDIKSAYSNWQILKEILGKMIKQTKASSGVIWNSFKELEESELETVIREIPAPSFLIPFPKHLTASSSSLLDHDRTVFQWLDQQPPSSVLYVSFGSTSEVDEKDFLEIARGLVDSKQSFLWVVRPGFVKGSTWVEPLPDGFLGERGRIVKWVPQQEVLAHGAIGGFWTHNGWNSTLESVCEGVPMIFSDFGLDQPLNARYMSDVLKVGVYLENGWERGEIANAIRRVMVDEEGEYIRQNARVLKEKADVSLMKGGSSYESLESLVSYISSL
# B2: UGT76G1var64: UGT76G1 variant, mutations F22L_A239I_R334H_I407V (protein, UniProt Q6VAB4 1-458, looked up, variant F22L A239I R334H I407V)
# UDP-glycosyltransferase 76G1: B1 UDP-glycosyltransferase 76G1 with F22L, A239I, F246L, R334H, G352A, N357S, I407V, E432Q
# B3: UGT76G1var68: UGT76G1 variant, mutations Q342K_G348P_I373L_Y397E (protein, UniProt Q6VAB4 1-458, looked up, variant Q342K G348P I373L Y397E)
# UDP-glycosyltransferase 76G1: B1 UDP-glycosyltransferase 76G1 with F246L, Q342K, G348P, G352A, N357S, I373L, Y397E, E432Q
# B4: UGT76G1var58: UGT76G1 variant, mutations S357C_S375M_N409R_Q425E (protein, UniProt Q6VAB4 1-458, looked up, variant S357C S375M N409R Q425E)
# UDP-glycosyltransferase 76G1: B1 UDP-glycosyltransferase 76G1 with F246L, G352A, N357C, S375M, N409R, Q425E, E432Q
# B5: UGT76G1var72: UGT76G1 variant, mutations T284L_D301N_K303G_S375R (protein, UniProt Q6VAB4 1-458, looked up, variant T284L D301N K303G S375R)
# UDP-glycosyltransferase 76G1: B1 UDP-glycosyltransferase 76G1 with F246L, T284L, D301N, K303G, G352A, N357S, S375R, E432Q
# B6: UGT76G1var62: UGT76G1 variant, mutations L243P_P272A_V394I_V396F (protein, UniProt Q6VAB4 1-458, looked up, variant L243P P272A V394I V396F)
# UDP-glycosyltransferase 76G1: B1 UDP-glycosyltransferase 76G1 with L243P, F246L, P272A, G352A, N357S, V394I, V396F, E432Q
# B7: UGT76G1var5: UGT76G1 variant, mutations F22Y_I373L_P382M (protein, UniProt Q6VAB4 1-458, looked up, variant F22Y I373L P382M)
# UDP-glycosyltransferase 76G1: B1 UDP-glycosyltransferase 76G1 with F22Y, F246L, G352A, N357S, I373L, P382M, E432Q
# B8: UGT76G1var71: UGT76G1 variant, mutations I295M_V300A_K393G_Q432E (protein, UniProt Q6VAB4 1-458, looked up, variant I295M V300A K393G Q432E)
# UDP-glycosyltransferase 76G1: B1 UDP-glycosyltransferase 76G1 with F246L, I295M, V300A, G352A, N357S, K393G
# B9: UGT76G1var59: UGT76G1 variant, mutations I335V_K393G_V394I_Y397Q (protein, UniProt Q6VAB4 1-458, looked up, variant I335V K393G V394I Y397Q)
# UDP-glycosyltransferase 76G1: B1 UDP-glycosyltransferase 76G1 with F246L, I335V, G352A, N357S, K393G, V394I, Y397Q, E432Q
# B10: UGT76G1var67: UGT76G1 variant, mutations E224D_F314S_S375R_Y397E (protein, UniProt Q6VAB4 1-458, looked up, variant E224D F314S S375R Y397E)
# UDP-glycosyltransferase 76G1: B1 UDP-glycosyltransferase 76G1 with E224D, F246L, F314S, G352A, N357S, S375R, Y397E, E432Q
# B11: UGT76G1var60: UGT76G1 variant, mutations E231A_L243A_V279I_S357N (protein, UniProt Q6VAB4 1-458, looked up, variant E231A L243A V279I S357N)
# UDP-glycosyltransferase 76G1: B1 UDP-glycosyltransferase 76G1 with E231A, L243A, F246L, V279I, G352A, E432Q
# B12: UGT76G1var3: UGT76G1 variant, mutations I295T_S357C_V366I (protein, UniProt Q6VAB4 1-458, looked up, variant I295T S357C V366I)
# UDP-glycosyltransferase 76G1: B1 UDP-glycosyltransferase 76G1 with F246L, I295T, G352A, N357C, V366I, E432Q
# B13: UGT76G1var77: UGT76G1 variant, mutations A239V_F265I_I295T_D301N_K393G (protein, UniProt Q6VAB4 1-458, looked up, variant A239V F265I I295T D301N K393G)
# UDP-glycosyltransferase 76G1: B1 UDP-glycosyltransferase 76G1 with A239V, F246L, F265I, I295T, D301N, G352A, N357S, K393G, E432Q
# B14: UGT76G1var66: UGT76G1 variant (round 1), mutations F265L_V310I_V366I_A385T (protein, UniProt Q6VAB4 1-458, looked up, variant F265L V310I V366I A385T)
# UDP-glycosyltransferase 76G1: B1 UDP-glycosyltransferase 76G1 with F246L, F265L, V310I, G352A, N357S, V366I, A385T, E432Q
# B15: UGT76G1var61: UGT76G1 variant, mutations I43V_F265I_Q266S_L379A (protein, UniProt Q6VAB4 1-458, looked up, variant I43V F265I Q266S L379A)
# UDP-glycosyltransferase 76G1: B1 UDP-glycosyltransferase 76G1 with I43V, F246L, F265I, Q266S, G352A, N357S, L379A, E432Q
# B16: UGT76G1var69: UGT76G1 variant, mutations S274G_I295T_I335V_L379A (protein, UniProt Q6VAB4 1-458, looked up, variant S274G I295T I335V L379A)
# UDP-glycosyltransferase 76G1: B1 UDP-glycosyltransferase 76G1 with F246L, S274G, I295T, I335V, G352A, N357S, L379A, E432Q
# B17: UGT76G1var57: UGT76G1 variant, mutations S241I_T263S_L379G_A385T (protein, UniProt Q6VAB4 1-458, looked up, variant S241I T263S L379G A385T)
# UDP-glycosyltransferase 76G1: B1 UDP-glycosyltransferase 76G1 with S241I, F246L, T263S, G352A, N357S, L379G, A385T, E432Q
# B18: UGT76G1var73: UGT76G1 variant, mutations F22Y_D301N_R334H_Q342E_V396F (protein, UniProt Q6VAB4 1-458, looked up, variant F22Y D301N R334H Q342E V396F)
# UDP-glycosyltransferase 76G1: B1 UDP-glycosyltransferase 76G1 with F22Y, F246L, D301N, R334H, Q342E, G352A, N357S, V396F, E432Q
# B19: UGT76G1var65: UGT76G1 variant, mutations A33G_A239V_P382M_Q425E (protein, UniProt Q6VAB4 1-458, looked up, variant A33G A239V P382M Q425E)
# UDP-glycosyltransferase 76G1: B1 UDP-glycosyltransferase 76G1 with A33G, A239V, F246L, G352A, N357S, P382M, Q425E, E432Q
# B20: UGT76G1var76: UGT76G1 variant, mutations F22Y_A239I_L246F_I295M_R334K (protein, UniProt Q6VAB4 1-458, looked up, variant F22Y A239I L246F I295M R334K)
# UDP-glycosyltransferase 76G1: B1 UDP-glycosyltransferase 76G1 with F22Y, A239I, I295M, R334K, G352A, N357S, E432Q
# B21: UGT76G1var74: UGT76G1 variant, mutations I295T_I373L_S375R_Y397Q_Q432E (protein, UniProt Q6VAB4 1-458, looked up, variant I295T I373L S375R Y397Q Q432E)
# UDP-glycosyltransferase 76G1: B1 UDP-glycosyltransferase 76G1 with F246L, I295T, G352A, N357S, I373L, S375R, Y397Q
# B22: UGT76G1var70: UGT76G1 variant, mutations E224A_I295T_V300A_G348P (protein, UniProt Q6VAB4 1-458, looked up, variant E224A I295T V300A G348P)
# UDP-glycosyltransferase 76G1: B1 UDP-glycosyltransferase 76G1 with E224A, F246L, I295T, V300A, G348P, G352A, N357S, E432Q
# B23: UGT76G1var78: UGT76G1 variant, mutations V279I_V300A_V310I_I335V_S357C (protein, UniProt Q6VAB4 1-458, looked up, variant V279I V300A V310I I335V S357C)
# UDP-glycosyltransferase 76G1: B1 UDP-glycosyltransferase 76G1 with F246L, V279I, V300A, V310I, I335V, G352A, N357C, E432Q
# B24: UGT76G1var75: UGT76G1 variant, mutations F41L_A239I_Q266S_S375M_P382M (protein, UniProt Q6VAB4 1-458, looked up, variant F41L A239I Q266S S375M P382M)
# UDP-glycosyltransferase 76G1: B1 UDP-glycosyltransferase 76G1 with F41L, A239I, F246L, Q266S, G352A, N357S, S375M, P382M, E432Q
# B25: UGT76G1var4: UGT76G1 variant, mutations E224D_E231A_F265I (protein, UniProt Q6VAB4 1-458, looked up, variant E224D E231A F265I)
# UDP-glycosyltransferase 76G1: B1 UDP-glycosyltransferase 76G1 with E224D, E231A, F246L, F265I, G352A, N357S, E432Q
# B26: UGT76G1var63: UGT76G1 variant, mutations F314S_R334H_Q342K_L379G (protein, UniProt Q6VAB4 1-458, looked up, variant F314S R334H Q342K L379G)
# UDP-glycosyltransferase 76G1: B1 UDP-glycosyltransferase 76G1 with F246L, F314S, R334H, Q342K, G352A, N357S, L379G, E432Q
# Experiment: Directed evolution of UGT76G1, conversion of Rebaudioside D to Rebaudioside M (round 1)
# Type: biochemical
# Conditions: 0.5 mM Rebaudioside D, 2.5 mM UDP-Glucose, 100 μL fresh lysate, 30° C., pH 7.2
# In short: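 UGT76G1 variants carrying 3-5 designed mutations were expressed in E. coli BL21(DE3) (pET30a+, 44 h at 20° C) and lysed. Lysate was reacted with 0.5 mM Reb D, 2.5 mM UDP-glucose, 3 mM MgCl2 in 50 mM phosphate pH 7.2 at 30° C; HPLC-CAD sampling at 2, 4, 7, 24 h gave conversion and initial rate.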
Molecule,Conversion Reb D to Reb M after 24 h (%),initial rate (Reb M area/min)
B1,0.4%,4.1E+04 Reb M area/min
B2,0.3%,3.1E+04 Reb M area/min
B3,−1.4%,−1.1E+05 Reb M area/min
B4,7.5%,2.2E+06 Reb M area/min
B5,19.2%,9.1E+06 Reb M area/min
B6,0.1%,3.4E+04 Reb M area/min
B7,3.5%,2.3E+06 Reb M area/min
B8,42.9%,2.1E+07 Reb M area/min
B9,33.0%,2.7E+07 Reb M area/min
B10,−2.1%,−5.6E+05 Reb M area/min
B11,0.5%,9.5E+04 Reb M area/min
B12,9.6%,1.6E+06 Reb M area/min
B13,1.9%,4.4E+05 Reb M area/min
B14,0.8%,3.7E+05 Reb M area/min
B15,6.4%,2.0E+06 Reb M area/min
B16,24.7%,8.3E+06 Reb M area/min
B17,0.8%,1.5E+05 Reb M area/min
B18,0.8%,8.7E+05 Reb M area/min
B19,1.2%,3.3E+05 Reb M area/min
B20,2.6%,7.2E+05 Reb M area/min
B21,0.6%,9.6E+04 Reb M area/min
B22,24.0%,8.4E+06 Reb M area/min
B23,3.2%,8.2E+05 Reb M area/min
B24,0.8%,−1.3E+05 Reb M area/min
B25,14.7%,8.6E+06 Reb M area/min
B26,3.4%,1.2E+06 Reb M area/min
